Measured values published in patent US20250011379A1.

Target: human C4b (human), P0C0L5
Test: cell-based or functional assay

Chain of human C4b (human), P0C0L5 (P0C0L5 20-1744): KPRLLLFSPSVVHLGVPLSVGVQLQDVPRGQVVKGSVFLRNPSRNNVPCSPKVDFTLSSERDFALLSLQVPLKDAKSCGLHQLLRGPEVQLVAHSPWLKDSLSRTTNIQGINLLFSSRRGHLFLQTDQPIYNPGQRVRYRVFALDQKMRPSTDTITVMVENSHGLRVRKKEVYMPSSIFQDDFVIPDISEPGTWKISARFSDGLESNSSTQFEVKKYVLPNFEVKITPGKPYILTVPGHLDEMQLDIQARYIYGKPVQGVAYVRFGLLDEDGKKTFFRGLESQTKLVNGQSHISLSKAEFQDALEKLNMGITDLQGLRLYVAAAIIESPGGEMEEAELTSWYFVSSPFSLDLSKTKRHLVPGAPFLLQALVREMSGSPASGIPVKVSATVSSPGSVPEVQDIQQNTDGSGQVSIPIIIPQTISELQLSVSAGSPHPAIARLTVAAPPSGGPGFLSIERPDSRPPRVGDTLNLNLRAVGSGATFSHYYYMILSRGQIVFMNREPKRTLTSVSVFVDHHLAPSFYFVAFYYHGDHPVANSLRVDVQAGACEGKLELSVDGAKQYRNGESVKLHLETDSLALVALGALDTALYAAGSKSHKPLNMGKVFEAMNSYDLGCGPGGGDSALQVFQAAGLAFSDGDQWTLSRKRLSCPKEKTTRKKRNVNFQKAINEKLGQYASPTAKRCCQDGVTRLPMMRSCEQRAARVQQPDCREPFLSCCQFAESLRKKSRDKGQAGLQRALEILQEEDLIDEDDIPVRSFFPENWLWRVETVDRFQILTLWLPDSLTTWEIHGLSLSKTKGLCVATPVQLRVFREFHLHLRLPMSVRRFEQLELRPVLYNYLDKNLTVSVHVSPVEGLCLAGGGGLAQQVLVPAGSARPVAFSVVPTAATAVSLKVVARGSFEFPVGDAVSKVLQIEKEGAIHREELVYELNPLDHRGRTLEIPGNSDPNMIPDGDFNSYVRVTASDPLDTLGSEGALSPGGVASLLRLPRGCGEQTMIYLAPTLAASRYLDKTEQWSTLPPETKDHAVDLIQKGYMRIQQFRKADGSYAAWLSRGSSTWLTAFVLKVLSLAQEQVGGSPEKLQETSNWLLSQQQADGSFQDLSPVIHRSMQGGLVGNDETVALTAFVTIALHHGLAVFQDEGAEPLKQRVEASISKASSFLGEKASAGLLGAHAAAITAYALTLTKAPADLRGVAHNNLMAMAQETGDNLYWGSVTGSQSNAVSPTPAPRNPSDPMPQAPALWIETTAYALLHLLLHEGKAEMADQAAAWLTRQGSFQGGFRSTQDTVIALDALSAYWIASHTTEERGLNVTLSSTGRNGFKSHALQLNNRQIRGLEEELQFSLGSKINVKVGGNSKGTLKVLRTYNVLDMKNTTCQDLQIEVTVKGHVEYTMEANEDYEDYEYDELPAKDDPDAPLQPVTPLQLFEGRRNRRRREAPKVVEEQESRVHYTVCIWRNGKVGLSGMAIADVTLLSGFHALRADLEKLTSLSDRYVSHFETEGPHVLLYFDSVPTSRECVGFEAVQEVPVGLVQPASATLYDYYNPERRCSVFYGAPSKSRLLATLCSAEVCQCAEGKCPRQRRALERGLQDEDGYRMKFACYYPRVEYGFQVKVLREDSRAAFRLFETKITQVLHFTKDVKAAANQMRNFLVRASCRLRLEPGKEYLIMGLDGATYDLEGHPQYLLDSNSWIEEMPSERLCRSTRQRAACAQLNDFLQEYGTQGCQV

C4c EC50 | Binder
412 nM | Const. No. 94: hCFI-PD (wild type plasma-derived human CFI), P05156 19-583 (enzyme) KVTYTSQEDLVEKKCLAKKYTHLSCDKVFCQPWQRCIEGTCVCKLPYQCPKNGTAVCATNRRSFPTYCQQKSLECLHPGTKFLNNGTCTAEGKFSVSLKHGNTDSEGIVEVKLVDQDKTMFICKSSWSMREANVACLDLGFQQGADTQRRFKLSDLSINSTECLHVHCRGLETSLAECTFTKRRTMGYQDFADVVCYTQKADSPMDDFFQCVNGKYISQMKACDGINDCGDQSDELCCKACQGKGFHCKSGVCIPSQYQCNGEVDCITGEDEVGCAGFASVTQEETEILTADMDAERRRIKSLLPKLSCGVKNRMHIRRKRIVGGKRAQLGDLPWQVAIKDASGITCGGIYIGGCWILTAAHCLRASKTHRYQIWTTVVDWIHPDLKRIVIEYVDRIIFHENYNAGTYQNDIALIEMKKDGNKKDCELPRSIPACVPWSPYLFQPNDTCIVSGWGREKDNERVFSLQWGEVKLISNCSKFYGNRFYEKEMECAGTYDGSIDACKGDSGGPLVCMDANNVTYVWGVVSWGENCGKPEFPGVYTKVANYFDWISYHVGRPFISQYNV
340 nM | Const. No. 96: hCFI (wt hCFI, no signal sequence, no HSA), P05156 19-583 (enzyme) KVTYTSQEDLVEKKCLAKKYTHLSCDKVFCQPWQRCIEGTCVCKLPYQCPKNGTAVCATNRRSFPTYCQQKSLECLHPGTKFLNNGTCTAEGKFSVSLKHGNTDSEGIVEVKLVDQDKTMFICKSSWSMREANVACLDLGFQQGADTQRRFKLSDLSINSTECLHVHCRGLETSLAECTFTKRRTMGYQDFADVVCYTQKADSPMDDFFQCVNGKYISQMKACDGINDCGDQSDELCCKACQGKGFHCKSGVCIPSQYQCNGEVDCITGEDEVGCAGFASVTQEETEILTADMDAERRRIKSLLPKLSCGVKNRMHIRRKRIVGGKRAQLGDLPWQVAIKDASGITCGGIYIGGCWILTAAHCLRASKTHRYQIWTTVVDWIHPDLKRIVIEYVDRIIFHENYNAGTYQNDIALIEMKKDGNKKDCELPRSIPACVPWSPYLFQPNDTCIVSGWGREKDNERVFSLQWGEVKLISNCSKFYGNRFYEKEMECAGTYDGSIDACKGDSGGPLVCMDANNVTYVWGVVSWGENCGKPEFPGVYTKVANYFDWISYHVGRPFISQYNV
